Data from US20130011380A1.
“And” between values parts separate entries of the source, which are not always exact repeats. Identical values can stand only once.

Legend:
Assay in all cases: anti-Flag IP-MS, mES nuclear extract
Hells (mouse) = Hells (mouse) (UniProt Q60848)
Rpn1 (mouse) = Rpn1 (mouse) (UniProt Q91YQ5)
Utf1 (mouse) = Utf1 (mouse) (UniProt Q6J1H4)
Cbx5 (mouse) = Cbx5 (mouse) (UniProt Q61686)
Tet1 (mouse) = Tet1 (mouse) (UniProt Q3URK3)
Aff1 (mouse) = Aff1 (mouse) (UniProt O88573)
Smarca5 (mouse) = Smarca5 (mouse) (UniProt Q91ZW3)
Ruvbl1 (mouse) = Ruvbl1 (mouse) (UniProt P60122)
Las1l (mouse) = Las1l (mouse) (UniProt A2BE28)
Emd (mouse) = Emd (mouse) (UniProt O08579)
Plekha7 (mouse) = Plekha7 (mouse) (UniProt Q3UIL6)
Cpsf1 (mouse) = Cpsf1 (mouse) (UniProt Q9EPU4)
Hdlbp (mouse) = Hdlbp (mouse) (UniProt Q8VDJ3)
Zc3h18 (mouse) = Zc3h18 (mouse) (UniProt Q0P678)
Calu (mouse) = Calu (mouse) (UniProt O35887)
Ncapg (mouse) = Ncapg (mouse) (UniProt E9PWG6)
Tufm (mouse) = Tufm (mouse) (UniProt Q8BFR5)
Tex10 (mouse) = Tex10 (mouse) (UniProt Q3URQ0)
Pcbp1 (mouse) = Pcbp1 (mouse) (UniProt P60335)
Prpf4 (mouse) = Prpf4 (mouse) (UniProt Q9DAW6)
Smc2 (mouse) = Smc2 (mouse) (UniProt Q8CG48)
Ywhae (mouse) = Ywhae (mouse) (UniProt P62259)
Smpd4 (mouse) = Smpd4 (mouse) (UniProt Q6ZPR5)
Nars (mouse) = Nars (mouse) (UniProt Q8BP47)
Dnajb6 (mouse) = Dnajb6 (mouse) (UniProt O54946)
Rif1 (mouse) = Rif1 (mouse) (UniProt Q6PR54)
Ogt (mouse) = Ogt (mouse) (UniProt Q8CGY8)
Rcc1 (mouse) = Rcc1 (mouse) (UniProt Q8VE37)
Rad21 (mouse) = Rad21 (mouse) (UniProt Q61550)
Nol9 (mouse) = Nol9 (mouse) (UniProt Q3TZX8)
Ncapd2 (mouse) = Ncapd2 (mouse) (UniProt Q8K2Z4)
Plec1 (mouse) = Plec1 (mouse) (UniProt Q9QXS1)
Chain of Plec1 (mouse) (Q9QXS1 whole entry): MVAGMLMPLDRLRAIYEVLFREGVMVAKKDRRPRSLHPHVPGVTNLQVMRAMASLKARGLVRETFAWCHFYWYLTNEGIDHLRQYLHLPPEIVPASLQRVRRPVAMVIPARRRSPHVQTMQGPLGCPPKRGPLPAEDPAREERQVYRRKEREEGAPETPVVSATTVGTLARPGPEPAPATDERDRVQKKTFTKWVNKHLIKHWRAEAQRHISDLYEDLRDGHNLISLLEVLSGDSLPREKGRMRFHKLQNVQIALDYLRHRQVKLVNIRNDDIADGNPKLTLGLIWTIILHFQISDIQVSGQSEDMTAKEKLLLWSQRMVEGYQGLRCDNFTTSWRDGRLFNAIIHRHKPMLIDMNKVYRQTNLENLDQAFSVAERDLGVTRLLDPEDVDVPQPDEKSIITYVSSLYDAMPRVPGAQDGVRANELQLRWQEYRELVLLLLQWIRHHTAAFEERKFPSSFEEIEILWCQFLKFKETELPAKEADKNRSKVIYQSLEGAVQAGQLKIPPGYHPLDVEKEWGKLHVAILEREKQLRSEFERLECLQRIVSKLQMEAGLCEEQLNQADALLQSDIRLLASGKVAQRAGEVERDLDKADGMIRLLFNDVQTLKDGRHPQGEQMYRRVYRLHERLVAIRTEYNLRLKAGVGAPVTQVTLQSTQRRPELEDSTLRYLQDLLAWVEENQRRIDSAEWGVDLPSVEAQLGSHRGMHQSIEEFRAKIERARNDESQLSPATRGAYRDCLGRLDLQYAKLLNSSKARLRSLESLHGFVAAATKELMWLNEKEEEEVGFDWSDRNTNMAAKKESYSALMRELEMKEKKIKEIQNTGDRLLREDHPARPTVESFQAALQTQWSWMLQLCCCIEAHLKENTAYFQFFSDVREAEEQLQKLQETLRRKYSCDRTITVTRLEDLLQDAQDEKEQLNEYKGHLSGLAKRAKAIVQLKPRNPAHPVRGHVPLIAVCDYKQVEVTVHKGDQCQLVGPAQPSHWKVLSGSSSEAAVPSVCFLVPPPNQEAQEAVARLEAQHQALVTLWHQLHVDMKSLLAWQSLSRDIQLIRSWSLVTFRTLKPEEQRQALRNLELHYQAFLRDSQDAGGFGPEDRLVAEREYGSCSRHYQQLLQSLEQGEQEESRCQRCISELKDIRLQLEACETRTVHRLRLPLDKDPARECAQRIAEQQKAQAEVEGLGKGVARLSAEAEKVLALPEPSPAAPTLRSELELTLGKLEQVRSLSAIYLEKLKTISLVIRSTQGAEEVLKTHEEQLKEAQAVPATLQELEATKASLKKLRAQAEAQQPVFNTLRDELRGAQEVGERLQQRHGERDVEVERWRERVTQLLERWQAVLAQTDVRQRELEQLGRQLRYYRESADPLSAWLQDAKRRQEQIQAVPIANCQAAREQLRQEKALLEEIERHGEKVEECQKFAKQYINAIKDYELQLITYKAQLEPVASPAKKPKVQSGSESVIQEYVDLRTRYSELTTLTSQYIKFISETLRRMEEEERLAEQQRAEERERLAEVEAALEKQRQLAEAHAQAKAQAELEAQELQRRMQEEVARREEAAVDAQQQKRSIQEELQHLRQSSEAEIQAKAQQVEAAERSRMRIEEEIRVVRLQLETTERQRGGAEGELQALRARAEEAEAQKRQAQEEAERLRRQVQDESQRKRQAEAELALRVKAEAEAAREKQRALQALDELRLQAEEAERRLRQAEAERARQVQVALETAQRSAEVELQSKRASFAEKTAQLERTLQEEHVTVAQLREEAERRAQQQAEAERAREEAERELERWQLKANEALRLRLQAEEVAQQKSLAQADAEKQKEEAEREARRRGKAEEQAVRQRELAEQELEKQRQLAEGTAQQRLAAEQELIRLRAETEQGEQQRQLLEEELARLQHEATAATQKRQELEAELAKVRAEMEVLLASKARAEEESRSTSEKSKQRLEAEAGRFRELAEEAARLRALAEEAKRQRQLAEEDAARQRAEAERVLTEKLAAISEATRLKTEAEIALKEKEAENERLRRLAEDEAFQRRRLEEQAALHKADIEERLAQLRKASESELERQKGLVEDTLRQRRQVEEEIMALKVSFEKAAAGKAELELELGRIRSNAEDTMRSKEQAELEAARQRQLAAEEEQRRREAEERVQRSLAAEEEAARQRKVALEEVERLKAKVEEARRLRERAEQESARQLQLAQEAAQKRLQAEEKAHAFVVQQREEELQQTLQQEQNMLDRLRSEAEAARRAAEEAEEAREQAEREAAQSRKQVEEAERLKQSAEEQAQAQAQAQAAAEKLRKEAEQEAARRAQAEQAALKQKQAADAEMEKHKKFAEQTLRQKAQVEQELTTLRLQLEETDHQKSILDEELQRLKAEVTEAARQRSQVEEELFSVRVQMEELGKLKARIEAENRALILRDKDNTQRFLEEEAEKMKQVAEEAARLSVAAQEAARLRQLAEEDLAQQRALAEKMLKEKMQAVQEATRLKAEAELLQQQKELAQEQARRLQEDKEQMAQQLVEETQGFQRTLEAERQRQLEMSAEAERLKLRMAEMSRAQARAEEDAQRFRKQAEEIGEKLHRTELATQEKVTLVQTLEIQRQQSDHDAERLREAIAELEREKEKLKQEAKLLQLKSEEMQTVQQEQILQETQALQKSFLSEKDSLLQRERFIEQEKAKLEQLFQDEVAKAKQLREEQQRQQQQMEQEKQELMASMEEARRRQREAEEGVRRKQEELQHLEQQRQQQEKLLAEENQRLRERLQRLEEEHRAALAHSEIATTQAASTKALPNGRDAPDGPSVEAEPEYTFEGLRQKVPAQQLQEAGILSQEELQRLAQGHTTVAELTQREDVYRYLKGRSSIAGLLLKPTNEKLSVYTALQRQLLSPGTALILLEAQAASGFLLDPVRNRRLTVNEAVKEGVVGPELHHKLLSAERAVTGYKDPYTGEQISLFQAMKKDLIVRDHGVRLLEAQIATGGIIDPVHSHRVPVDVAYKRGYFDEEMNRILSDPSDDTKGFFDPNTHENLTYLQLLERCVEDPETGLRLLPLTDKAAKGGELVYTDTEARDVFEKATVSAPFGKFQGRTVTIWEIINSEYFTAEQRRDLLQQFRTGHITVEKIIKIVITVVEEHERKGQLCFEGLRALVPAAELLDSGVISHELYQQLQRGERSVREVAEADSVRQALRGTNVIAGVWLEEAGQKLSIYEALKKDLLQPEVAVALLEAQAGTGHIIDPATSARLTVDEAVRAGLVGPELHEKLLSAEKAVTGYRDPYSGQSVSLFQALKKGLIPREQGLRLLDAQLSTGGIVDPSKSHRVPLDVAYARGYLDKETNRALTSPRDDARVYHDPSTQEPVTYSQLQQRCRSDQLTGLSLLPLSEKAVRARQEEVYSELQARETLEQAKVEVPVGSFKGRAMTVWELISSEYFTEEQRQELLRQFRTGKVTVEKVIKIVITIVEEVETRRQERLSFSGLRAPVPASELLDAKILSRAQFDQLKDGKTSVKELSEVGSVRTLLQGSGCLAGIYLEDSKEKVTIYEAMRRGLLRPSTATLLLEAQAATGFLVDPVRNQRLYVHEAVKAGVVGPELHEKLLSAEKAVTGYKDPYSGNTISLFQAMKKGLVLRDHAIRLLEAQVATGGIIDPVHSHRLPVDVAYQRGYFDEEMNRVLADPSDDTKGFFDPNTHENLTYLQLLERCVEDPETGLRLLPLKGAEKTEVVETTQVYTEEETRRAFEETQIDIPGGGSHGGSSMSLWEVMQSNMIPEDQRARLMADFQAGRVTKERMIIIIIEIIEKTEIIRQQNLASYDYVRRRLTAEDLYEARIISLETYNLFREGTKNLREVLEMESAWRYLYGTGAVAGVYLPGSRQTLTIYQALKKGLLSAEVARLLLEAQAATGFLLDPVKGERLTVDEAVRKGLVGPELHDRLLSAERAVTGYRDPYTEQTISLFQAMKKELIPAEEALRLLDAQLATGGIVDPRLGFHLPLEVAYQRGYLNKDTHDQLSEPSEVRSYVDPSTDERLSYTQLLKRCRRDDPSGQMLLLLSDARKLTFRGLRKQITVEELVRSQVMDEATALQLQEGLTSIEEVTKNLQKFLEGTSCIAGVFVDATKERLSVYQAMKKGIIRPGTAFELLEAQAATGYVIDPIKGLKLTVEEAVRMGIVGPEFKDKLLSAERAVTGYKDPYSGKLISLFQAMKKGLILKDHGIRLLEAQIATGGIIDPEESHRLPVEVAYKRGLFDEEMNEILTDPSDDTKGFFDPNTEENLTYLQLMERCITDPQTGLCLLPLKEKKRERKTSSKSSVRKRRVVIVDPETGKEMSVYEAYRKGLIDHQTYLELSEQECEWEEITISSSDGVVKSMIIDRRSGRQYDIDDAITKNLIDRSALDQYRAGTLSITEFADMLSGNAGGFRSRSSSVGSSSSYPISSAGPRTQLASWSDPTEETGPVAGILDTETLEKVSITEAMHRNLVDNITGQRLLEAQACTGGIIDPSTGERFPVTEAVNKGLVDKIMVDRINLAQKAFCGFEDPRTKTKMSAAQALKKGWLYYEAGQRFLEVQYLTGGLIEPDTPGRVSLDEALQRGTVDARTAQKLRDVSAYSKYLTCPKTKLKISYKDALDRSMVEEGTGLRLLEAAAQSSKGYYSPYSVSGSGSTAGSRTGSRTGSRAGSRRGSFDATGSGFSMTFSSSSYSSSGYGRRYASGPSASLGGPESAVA

Xpo1 (mouse) = Xpo1 (mouse) (UniProt Q6P5F9)
Ctbp2 (mouse) = Ctbp2 (mouse) (UniProt P56546)
Ranbp1 (mouse) = Ranbp1 (mouse) (UniProt P34022)
Mcm6 (mouse) = Mcm6 (mouse) (UniProt P97311)
Mllt4 (mouse) = Mllt4 (mouse) (UniProt Q9QZQ1)
Psmc2 (mouse) = Psmc2 (mouse) (UniProt P46471)
Kif11 (mouse) = Kif11 (mouse) (UniProt Q6P9P6)
Pfkl (mouse) = Pfkl (mouse) (UniProt P12382)

Chain of Utf1 (mouse) (Q6J1H4 whole entry): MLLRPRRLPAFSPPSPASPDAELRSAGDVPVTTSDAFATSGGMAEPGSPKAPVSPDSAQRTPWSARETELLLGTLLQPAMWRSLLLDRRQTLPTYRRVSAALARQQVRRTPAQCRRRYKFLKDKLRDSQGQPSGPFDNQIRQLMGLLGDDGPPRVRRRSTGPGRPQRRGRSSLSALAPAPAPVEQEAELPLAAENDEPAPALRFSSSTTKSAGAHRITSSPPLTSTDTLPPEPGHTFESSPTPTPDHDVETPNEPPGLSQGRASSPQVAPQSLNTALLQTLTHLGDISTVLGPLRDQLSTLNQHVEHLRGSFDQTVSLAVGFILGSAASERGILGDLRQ

A Nucleus peptide (Hells (mouse)) of 1 peptides, a Nucleus spectra (Hells (mouse)) of 1 spectra and a Nucleus peptide (Rpn1 (mouse)) of 0 peptides were found for 2x Flag tag only (control) (peptide) in this work. The Nucleus spectra (Rpn1 (mouse)) was 0 spectra, the Nucleus peptide (Utf1 (mouse)) was 4 peptides and the Nucleus spectra (Utf1 (mouse)) was 6 spectra. For the same substance, the Nucleus peptide (Cbx5 (mouse)) was 2 peptides, the Nucleus spectra (Cbx5 (mouse)) was 3 spectra and the Nucleus peptide (Tet1 (mouse)) was 1 peptides. It also gave a Nucleus peptide (Aff1 (mouse)) of 0 peptides, a Nucleus spectra (Aff1 (mouse)) of 0 spectra and a Nucleus peptide (Smarca5 (mouse)) of 8 peptides. It also gave a Nucleus spectra (Smarca5 (mouse)) of 15 spectra, a Nucleus peptide (Ruvbl1 (mouse)) of 9 peptides and a Nucleus spectra (Ruvbl1 (mouse)) of 17 spectra. The Nucleus peptide (Las1l (mouse)) was 2 peptides, the Nucleus spectra (Las1l (mouse)) was 3 spectra and the Nucleus peptide (Emd (mouse)) was 1 peptides. The Nucleus spectra (Emd (mouse)) was 1 spectra, the Nucleus peptide (Plekha7 (mouse)) was 1 peptides and the Nucleus spectra (Plekha7 (mouse)) was 1 spectra. The Nucleus peptide (Cpsf1 (mouse)) was 0 peptides, the Nucleus spectra (Cpsf1 (mouse)) was 0 spectra and the Nucleus peptide (Hdlbp (mouse)) was 1 peptides. The Nucleus spectra (Hdlbp (mouse)) was 1 spectra, the Nucleus peptide (Zc3h18 (mouse)) was 3 peptides and 1 peptides and the Nucleus peptide (Calu (mouse)) was 0 peptides. It also gave a Nucleus spectra (Calu (mouse)) of 0 spectra, a Nucleus peptide (Ncapg (mouse)) of 0 peptides and a Nucleus spectra (Ncapg (mouse)) of 0 spectra. The Nucleus peptide (Tufm (mouse)) was 6 peptides, the Nucleus spectra (Tufm (mouse)) was 11 spectra and the Nucleus peptide (Tex10 (mouse)) was 1 peptides. For the same substance, the Nucleus spectra (Tex10 (mouse)) was 3 spectra, the Nucleus peptide (Pcbp1 (mouse)) was 2 peptides and the Nucleus spectra (Pcbp1 (mouse)) was 6 spectra. The Nucleus peptide (Prpf4 (mouse)) was 2 peptides, the Nucleus spectra (Prpf4 (mouse)) was 2 spectra and the Nucleus peptide (Smc2 (mouse)) was 4 peptides. For the same substance, the Nucleus spectra (Smc2 (mouse)) was 6 spectra, the Nucleus peptide (Ywhae (mouse)) was 1 peptides and the Nucleus spectra (Ywhae (mouse)) was 1 spectra. It also gave a Nucleus peptide (Smpd4 (mouse)) of 4 peptides, a Nucleus spectra (Smpd4 (mouse)) of 8 spectra and a Nucleus peptide (Nars (mouse)) of 3 peptides. For the same substance, the Nucleus spectra (Nars (mouse)) was 3 spectra, the Nucleus peptide (Dnajb6 (mouse)) was 1 peptides and the Nucleus spectra (Dnajb6 (mouse)) was 2 spectra. For the same substance, the Nucleus peptide (Rif1 (mouse)) was 8 peptides, the Nucleus spectra (Rif1 (mouse)) was 17 spectra and the Nucleus peptide (Ogt (mouse)) was 0 peptides. It also gave a Nucleus spectra (Ogt (mouse)) of 0 spectra, a Nucleus peptide (Rcc1 (mouse)) of 3 peptides and a Nucleus spectra (Rcc1 (mouse)) of 6 spectra. For the same substance, the Nucleus peptide (Rad21 (mouse)) was 0 peptides, the Nucleus spectra (Rad21 (mouse)) was 0 spectra and the Nucleus peptide (Nol9 (mouse)) was 1 peptides. It also gave a Nucleus spectra (Nol9 (mouse)) of 1 spectra, a Nucleus peptide (Ncapd2 (mouse)) of 1 peptides and a Nucleus spectra (Ncapd2 (mouse)) of 1 spectra. The Nucleus peptide (Plec1 (mouse)) was 15 peptides, the Nucleus spectra (Plec1 (mouse)) was 20 spectra and the Nucleus peptide (Xpo1 (mouse)) was 0 peptides. It also gave a Nucleus spectra (Xpo1 (mouse)) of 0 spectra, a Nucleus peptide (Ctbp2 (mouse)) of 2 peptides and a Nucleus spectra (Ctbp2 (mouse)) of 4 spectra. For the same substance, the Nucleus peptide (Ranbp1 (mouse)) was 1 peptides, the Nucleus spectra (Ranbp1 (mouse)) was 2 spectra and the Nucleus peptide (Mcm6 (mouse)) was 8 peptides. The Nucleus spectra (Mcm6 (mouse)) was 12 spectra, the Nucleus peptide (Mllt4 (mouse)) was 1 peptides and the Nucleus spectra (Mllt4 (mouse)) was 2 spectra. For the same substance, the Nucleus peptide (Psmc2 (mouse)) was 1 peptides, the Nucleus spectra (Psmc2 (mouse)) was 1 spectra and the Nucleus peptide (Kif11 (mouse)) was 0 peptides. For the same substance, the Nucleus spectra (Kif11 (mouse)) was 0 spectra, the Nucleus peptide (Pfkl (mouse)) was 1 peptides and the Nucleus spectra (Pfkl (mouse)) was 1 spectra.

A Nucleus peptide (Hells (mouse)) of 6 peptides, a Nucleus spectra (Hells (mouse)) of 13 spectra and a Nucleus peptide (Rpn1 (mouse)) of 3 peptides were found for “human AID containing two tandem Flag tags (Flag-human AID) (from UniProt Q9GZX7 1-198) (enzyme)” in this work. The Nucleus spectra (Rpn1 (mouse)) was 5 spectra, the Nucleus peptide (Utf1 (mouse)) was 7 peptides and the Nucleus spectra (Utf1 (mouse)) was 16 spectra. For the same substance, the Nucleus peptide (Cbx5 (mouse)) was 4 peptides, the Nucleus spectra (Cbx5 (mouse)) was 12 spectra and the Nucleus peptide (Tet1 (mouse)) was 14 peptides. The Nucleus spectra (Tet1 (mouse)) was 41 spectra, the Nucleus peptide (Aff1 (mouse)) was 3 peptides and the Nucleus spectra (Aff1 (mouse)) was 6 spectra. For the same substance, the Nucleus peptide (Smarca5 (mouse)) was 16 peptides, the Nucleus spectra (Smarca5 (mouse)) was 45 spectra and the Nucleus peptide (Ruvbl1 (mouse)) was 13 peptides. It also gave a Nucleus spectra (Ruvbl1 (mouse)) of 37 spectra, a Nucleus peptide (Las1l (mouse)) of 9 peptides and a Nucleus spectra (Las1l (mouse)) of 21 spectra. It also gave a Nucleus peptide (Emd (mouse)) of 4 peptides, a Nucleus spectra (Emd (mouse)) of 10 spectra and a Nucleus peptide (Plekha7 (mouse)) of 4 peptides. The Nucleus spectra (Plekha7 (mouse)) was 6 spectra, the Nucleus peptide (Cpsf1 (mouse)) was 4 peptides and the Nucleus spectra (Cpsf1 (mouse)) was 8 spectra. The Nucleus peptide (Hdlbp (mouse)) was 3 peptides, the Nucleus spectra (Hdlbp (mouse)) was 5 spectra and the Nucleus peptide (Zc3h18 (mouse)) was 5 peptides and 2 peptides. For the same substance, the Nucleus spectra (Zc3h18 (mouse)) was 20 spectra and 8 spectra, the Nucleus peptide (Calu (mouse)) was 3 peptides and the Nucleus spectra (Calu (mouse)) was 6 spectra. For the same substance, the Nucleus peptide (Ncapg (mouse)) was 4 peptides, the Nucleus spectra (Ncapg (mouse)) was 9 spectra and the Nucleus peptide (Tufm (mouse)) was 9 peptides. It also gave a Nucleus spectra (Tufm (mouse)) of 25 spectra, a Nucleus peptide (Tex10 (mouse)) of 6 peptides and a Nucleus spectra (Tex10 (mouse)) of 12 spectra. The Nucleus peptide (Pcbp1 (mouse)) was 5 peptides, the Nucleus spectra (Pcbp1 (mouse)) was 13 spectra and the Nucleus peptide (Prpf4 (mouse)) was 4 peptides. For the same substance, the Nucleus spectra (Prpf4 (mouse)) was 5 spectra, the Nucleus peptide (Smc2 (mouse)) was 7 peptides and the Nucleus spectra (Smc2 (mouse)) was 16 spectra. The Nucleus peptide (Ywhae (mouse)) was 3 peptides, the Nucleus spectra (Ywhae (mouse)) was 6 spectra and the Nucleus peptide (Smpd4 (mouse)) was 9 peptides. It also gave a Nucleus spectra (Smpd4 (mouse)) of 17 spectra, a Nucleus peptide (Nars (mouse)) of 7 peptides and a Nucleus spectra (Nars (mouse)) of 16 spectra. It also gave a Nucleus peptide (Dnajb6 (mouse)) of 5 peptides, a Nucleus spectra (Dnajb6 (mouse)) of 17 spectra and a Nucleus peptide (Rif1 (mouse)) of 37 peptides. The Nucleus spectra (Rif1 (mouse)) was 109 spectra, the Nucleus peptide (Ogt (mouse)) was 7 peptides and the Nucleus spectra (Ogt (mouse)) was 12 spectra. It also gave a Nucleus peptide (Rcc1 (mouse)) of 7 peptides, a Nucleus spectra (Rcc1 (mouse)) of 16 spectra and a Nucleus peptide (Rad21 (mouse)) of 3 peptides. It also gave a Nucleus spectra (Rad21 (mouse)) of 6 spectra, a Nucleus peptide (Nol9 (mouse)) of 6 peptides and a Nucleus spectra (Nol9 (mouse)) of 14 spectra. The Nucleus peptide (Ncapd2 (mouse)) was 10 peptides, the Nucleus spectra (Ncapd2 (mouse)) was 22 spectra and the Nucleus peptide (Plec1 (mouse)) was 48 peptides. For the same substance, the Nucleus spectra (Plec1 (mouse)) was 94 spectra, the Nucleus peptide (Xpo1 (mouse)) was 4 peptides and the Nucleus spectra (Xpo1 (mouse)) was 6 spectra. It also gave a Nucleus peptide (Ctbp2 (mouse)) of 4 peptides, a Nucleus spectra (Ctbp2 (mouse)) of 9 spectra and a Nucleus peptide (Ranbp1 (mouse)) of 2 peptides. It also gave a Nucleus spectra (Ranbp1 (mouse)) of 7 spectra, a Nucleus peptide (Mcm6 (mouse)) of 13 peptides and a Nucleus spectra (Mcm6 (mouse)) of 29 spectra. The Nucleus peptide (Mllt4 (mouse)) was 7 peptides, the Nucleus spectra (Mllt4 (mouse)) was 11 spectra and the Nucleus peptide (Psmc2 (mouse)) was 3 peptides. It also gave a Nucleus spectra (Psmc2 (mouse)) of 7 spectra, a Nucleus peptide (Kif11 (mouse)) of 3 peptides and a Nucleus spectra (Kif11 (mouse)) of 4 spectra. For the same substance, the Nucleus peptide (Pfkl (mouse)) was 6 peptides and the Nucleus spectra (Pfkl (mouse)) was 10 spectra.
